Assays:
[1] = biological target: M.EcoKI, DNA methyltransferase component (M2S1) of the EcoKI type I R/M system (E. coli K12) (UniProt P08957); assay: fluorescence polarisation; competition with DNA: M.EcoKI titrated into 50 nM Ocr and 2 nM of a 21-bp DNA duplex fluorescently labelled at the 5' end; anisotropy of the DNA monitored
[2] = tested on: M.EcoKI (M2S1 methyltransferase core of EcoKI); assay: fluorescence anisotropy; set-up: unit not given here; settings: Anisotropy: M.EcoKI titrated into 2 nM labelled duplex (with 50 nM Ocr in the competition series); buffer and temperature not given (ref. 12). ITC buffer …
[3] = biological target: M.EcoKI, DNA methyltransferase component (M2S1) of the EcoKI type I R/M system (E. coli K12) (UniProt P08957); assay: ITC; Ocr (typically 40 uM) titrated into M.EcoKI (4 uM); 20 mM Tris-HCl pH 8.0, 6 mM MgCl2, 7 mM 2-mercaptoethanol, 100 uM SAM, with or without 500 mM NaCl; 10 to 30 °C
[4] = biological target: T1, M.EcoKI methyltransferase (M2S1 core of the EcoKI type I restriction/modification enzyme) (UniProt P05719+P08957); assay: ITC; settings: pH 8.0, 25 °C, no NaCl, 6 mM MgCl2
[5] = biological target: T1, M.EcoKI methyltransferase (M2S1 core of the EcoKI type I restriction/modification enzyme); assay: ITC in two buffers of different ionisation enthalpy (comparison of C1 and C2); settings: pH 8.0; 25 °C; no NaCl; 6 mM MgCl2; 20 mM Tris-HCl pH 8.0 (47.4 kJ/mol) versus 20 mM Hepes (20.5 kJ/mol)

| Substance | Kd [1] [nM] | further results |
| --- | --- | --- |
| Ocr chemically modified with EDC/HOBt and dimethylamine for 120 min (D-series) (from UniProt P03775 1-117) (natural protein) | 23.1 |  |
| 21-bp DNA duplex |  | Kd [2]: 2.1 |
| Ocr chemically modified with EDC/HOBt and ammonium hydroxide for 120 min (N-series) (from UniProt P03775 1-117) (natural protein) | 3.77 |  |
| Ocr chemically modified with EDC/HOBt and dimethylamine for 15 min (D-series) (from UniProt P03775 1-117) (natural protein) | 2.64 | stoichiometry N (Ocr dimer per molecule of M.EcoKI) [3]: 1 |
| Ocr (overcome classical restriction; gene 0.3 protein), unmodified wild type |  | ΔH ([4]; 20 mM Hepes in place of Tris-HCl (heat of ionization = 20.5 kJ/mol as printed), pH not restated, taken as 8.0): − 90.0 kJ/mol; ΔH ([4]; 20 mM Tris-HCl, pH 8.0 (heat of ionization = 47.4 kJ/mol as printed)): − 86.2 kJ/mol; net protonation change on binding (no number given) [5]: 0 protons |
| Ocr chemically modified with EDC/HOBt and dimethylamine for 60 min (D-series) (from UniProt P03775 1-117) (natural protein) | 19.7 |  |
| Ocr chemically modified with EDC/HOBt and ammonium hydroxide for 60 min (N-series) (from UniProt P03775 1-117) (natural protein) | 1.9 | stoichiometry N (Ocr dimer per molecule of M.EcoKI) [3]: 1 |

Continued by falling Kd [1], values first:

| Kd [1] [nM] | Substance | further results |
| --- | --- | --- |
| 26.6 | Ocr chemically modified with EDC/HOBt and dimethylamine for 180 min (D-series) (from UniProt P03775 1-117) (natural protein) |  |
| 12.6 | Ocr chemically modified with EDC/HOBt and ammonium hydroxide for 180 min (N-series) (from UniProt P03775 1-117) (natural protein) |  |
| 5.8 | Ocr chemically modified with EDC/HOBt and dimethylamine for 30 min (D-series) (from UniProt P03775 1-117) (natural protein) |  |
| 1.82 | Ocr chemically modified with EDC/HOBt and ammonium hydroxide for 30 min (N-series) (from UniProt P03775 1-117) (natural protein) |  |
| 0.56 | Ocr chemically modified with EDC/HOBt and ammonium hydroxide for 15 min (N-series) (from UniProt P03775 1-117) (natural protein) |  |

— paper PMC2806950
